Changes are numbered by the printed parent chain.
B1: LK-RB1-51 (antibody, human IgG4 S228P, kappa, V domains shown)
VH: QVQIQQSGAELVKPGASVKLSCKASGYTFTEFPIHWIKQRSGQGLEWIGWFYPGSDNMNYNEKFKDKATLTADKSSSTVYMELSRLTSEDSAVYFCARHENAYFYAMDYWGQGTSVTVSS
VL: ENVLTQSPAIMSASLGEKVTMSCRASSSVNYMYWYQQKSDASPKIWIYYTSNLAPGVPARFSGSGSGNSYSLTISSMEGEDAATYYCQQFTSSPFTFGTGTKLEIKR
B2: LK-RB1-50 (antibody, human IgG4 S228P, kappa, V domains shown)
VH: QVQLKQSGPGLVQPSQSLSITCTVSGFSLTSYGVHWVRQSPGKGLEWLGVIWRGGNTDYNAPFVSRLSITKDNSQSQVFFKMNSLEADDTAIYYCAKNSLDVYSSWYFDVWGTGTTVTVSS
VL: QIVLSQSPAILSAFPGEKVTMTCRASSSVSFMHWYQQKPGSSPKPWIYATSNLASGVPARFSGSGSGTSYSLTISRVEAEDAATYYCQQWSSNPLTFGAGTKLELKR
B3: LK-RB1-56 (antibody, human IgG4 S228P, kappa, V domains shown)
VH: QVQLKQSGPGLVQPSQSLSITCSVSGFSLTNYGVHWVRQSPGKGLEWLGVIWRGGSTDNNAAFMSRLSITKDNSKSQVFFKMNSLQADDTAIYYCAKNSDFYGSSWYFDVWGTGTTVTVSS
VL: B2 VL with F14S, S92R, L95P
B4: LK-RB1-58 (antibody, human IgG4 S228P, kappa, V domains shown)
VH: B3 VH with S23T, N31T, N59Y, K81R, I92R, D100L, F101Y
VL: B2 VL with F14S, L95P, A99G, L105I
B5: LK-RB1-32 (antibody, human IgG4 S228P, kappa, V domains shown)
VH: QVQLQQSGAELAKPGASVKLSCTASGYTFTTYLMHWVKQRPAQGLEWIGYINPSNDFTKYNQKFKDKATLTADTSSSTAYMQLNSLTFEDSAVYYCARNSDYDPSYWGQGTTLTVSS
VL: DIQMTQSPASLSVSVGETVTITCRASENIYSSLAWYQQKQGKSPQLLVYAATNLADGVPSRFSGSGSGTQYSLKINSLQSEDFGNYYCQHFWGTWAFGGGTKLEIKR
B6: LK-RB1-28 (antibody, human IgG4 S228P, kappa, V domains shown)
VH: QVQLQQSGPELVKPGTSVKMSCKASGYTFTSHYIHWMKQRPGQGLDWIGWIYPGDGHTKYHEKFKGKATLTADTSSITAYMQLSLLTSEDSAVYYCVYYSDSWFPYWGQGTLVTVSA
VL: DIQMTQSPASLSVSVGETVTITCRASENIYSNLAWYQQKQGKSPQLLVYAATNLADGVPSRFSGSGSGTQYSLKINSLQSEDFGNYFCQHFWGSPWTFGGGTKLEIKR
B7: LK-RB1-35 (antibody, human IgG4 S228P, kappa, V domains shown)
VH: DVQLQESGPGLEKPSQSLSLTCSVTGYSITRGYQWNWIRQFPGNKLEWMGYISYDGSNNYNPSLKNRISITRDASKNQFFLKLNSVTTEDTATYYCARRSYNSIDYWGQGTTLTVSS
VL: DIVLTQSPATLSVTPGDSVSLSCRASQSISSNLHWYQQKSHESPRLLIKYASQSISGIPSRFSGSGSGTDFTLSINSVETEDFGMYFCQQSNSWPLTFGAGTKLELKR
B8: LK-RB1-38 (antibody, human IgG4 S228P, kappa, V domains shown)
VH: DVQLQESGPGLVQPSQSLSLTCSVTGYSITSGYQWNWIRQLPGNKLEWMAYISFDGSNNYNPSLKNRISITRDTSKNQFFLKLKSVTTEDTATYYCARRDYDGVAYWGQGTLVTVSA
VL: B7 VL with D1E, S18R, S28N, S31N, N32Y, E42G, L47I
B9: LK-RB1-36 (antibody, human IgG4 S228P, kappa, V domains shown)
VH: B7 VH with T71I, A74T
VL: B7 VL with S31N
B10: LK-RB1-46 (antibody, human IgG4 S228P, kappa, V domains shown)
VH: EVQLQQSGPELVKPGASVKISCKTSGYTFTDYYMNWVKQSHGKSLEWIGDIYPINGDISYNQKFKGKATLTVDKSSSTVYMEIRSLTYEDSAVYYCARLAQTTSGGFDYWGQGTTLTVSS
VL: DIVLTQSPTSLAVSLGQRAIISCKASQSVSFAGTSLMHWYQQKPGQQPKLLIYRASNLKAGVPTRFSGSGSRTDFTLNIHPVEEDDAATYYCQQSREYPMYTFGGGTKLEIKR
B11: LK-RB1-37 (antibody, human IgG4 S228P, kappa, V domains shown)
VH: QVQLQQPGAELVKPGASVKLSCKASGYTFTSYWMHWVKQRPGRGPEWIGRIDPNSGYARYNEKFKNKATLTADKPSSTADMHLSSLTSEDSAVYYCTRSFITTAEWFFDVWGTGTTVTVSS
VL: DILLTQSPAILSVSPGERVSFSCRASQSIGTSIHWYQQRRNGSPRLLIKYTSESISGIPSRFSGSGSGTDFTLSINSVESEDIADYYCQQSNSWPHTFGGGTKLELKR
B12: LK-RB1-44 (antibody, human IgG4 S228P, kappa, V domains shown)
VH: QVQLQQSGTELAKPGASVKLSCKASGYTFTNYWMHWIKQRPGQGLEWIGYVHPTSDYTKYNQKFKDKATLTADKSSSTAYMQLNSLTYEDSAVYYCTRSSLYDTNYVFDSWGQGTTLTVSS
VL: DILLTQSPAILSVSPGERVSFSCRASQSIGRSIHWFQQRTNGSPSLLIKYASESISGIPSRFSGGGSGTDFTLSISNVESEDIADYYCQQSNNWPFTFGSGTKLEIKR
B13: LK-RB1-45 (antibody, human IgG4 S228P, kappa, V domains shown)
VH: B12 VH with K13R, Y32F, H52N
VL: B12 VL with F36Y, S45R
B14: LK-RB1-3 (antibody, human IgG4 S228P, kappa, V domains shown)
VH: QVQLQQPGAELVKPGTSVNLSCKASGYTFTSYWIHWVKQRPGRGLEWIGRINPYSSGTRYNEKFKNKATLTVDKPSSTAYMQLTSLTSEDSAVYYCARFDGAPDYFDFWGQGTTLTVSS
VL: DIVMTQSQKFMPTSVGDRVNVTCKASQNVGINVAWYQQKLGQSPKALIYSASYRYSGVPDRFTGSGSGTDFTLTINSVQSEDLADYFCQQYNNYPFTFGSGTKLEIKR
B15: LK-RB1-17 (antibody, human IgG4 S228P, kappa, V domains shown)
VH: QVQLQQPGAELVKPGASVKLSCEASGYTFTNYWIHWVKQRPGRGLEWIGRIAPNSGGTKYNEKFKTRATLTVDKASTTAYMQLSSLTSEDSAVYYCARLDGSPYYFDYWGQGTTLTVSS
VL: DIVMTQSQKFMSTSIGDRVSVTCKASQNVDTNVAWYQQKPGQSPKALIYSASYRYSGIPDRFTGSGSGTDFTLTISNVQSEDLAEYFCQQYNSYPYTFGGGTKLEIKR
B16: LK-RB1-2 (antibody, human IgG4 S228P, kappa, V domains shown)
VH: QIQLVQSGPELKKPGETVKISCKASGYTFTTYGVSWVKQAPGKGLKWMGWINTYSGVSTYSDDFKGRFAFSLETSASTAYLQIINLKNEDAATYFCSRRRRTYDGYLSFDYWGQGTTLTVSS
VL: DIQMTQSPGSLSASVGETVTITCGASENIYGALNWFQRKPGKSPQLLIYGATNLADGMSSRFSGSGSGRQYSLQISSLRPDDVATYYCQNVLTTPWTFGGGTKVEIKR
B17: LK-RB1-31 (antibody, human IgG4 S228P, kappa, V domains shown)
VH: QVQLKESGPGLVAPSQSLSITCTVSGFSLTSYGVSWVRQPPGKGLEWLGIIWGDGSTNYHSALKSRLSISKDNSKSQVFLKLNSLQTEDTATYYCAKPNWDYYAMDYWGQGTSVTVSS
VL: DIQMTQTTSSLSASLGDRVTISCRASQDISNYLNWYLQKPDGTVKLLIYYTSRLHSGVPSRFSGSGSGTDYSLTISNLEQEDIATYFCQQGITLPCTFGGGTKLEIKR
B18: LK-RB1-40 (antibody, human IgG4 S228P, kappa, V domains shown)
VH: B8 VH
VL: DVLMTQTPLSLPVSLGDQASISCRSSQSIVHSNGNTYLEWYLQKPGQSPKLLIYKVSNRFSGVPDRFSGSGSGTDFTLKISRVEAEDLGVYYCFQGSHVPWTFGGGTKLEIKR
B19: LK-RB1-1 (antibody, human IgG4 S228P, kappa, V domains shown)
VH: QIQLVQSGPELKKPGETVKISCKASGYSFTNFGMSWVKQAPGKALKWMGWINTYSGVPTYADDFKGRFAFSLETSANTAYLQINNLKNEDSATYFCARRRRTFDGYLCFDYWGQGATLTVSS
VL: QLVLTQSSSASFSLGASAKLTCTLSSQHSTYSIDWYQQQPLKPPKYVMELKTDGSHRTGDGIPDRFSGSSSGADRYLSISNIQPEDEAIYICGVGDTIKEQFVYVFGGGTKVTVLR
B20: LK-RB1-54 (antibody, human IgG4 S228P, kappa, V domains shown)
VH: DVQLQESGPGLVKPSQSLSLTCSVTGYSITSGFYWNWIRQFPGNKLEWMGHISYDGTNNYNPSLKNRISITRDTSKNLFFLKLNSVTTEDTATFHCARGGYGGSYGFDYWGQGTTLTVSS
VL: B1 VL with I45L, A59V, F95W, T99G
B21: LK-RB1-43 (antibody, human IgG4 S228P, kappa, V domains shown)
VH: EFQLQQSGPELMKPGASVKISCKASGYSFTDYNMNWVKQSNGKSLEWIGIIDPNYGTTTYNQKFKGRATLTVDQSSNTAYMQLNSLTSEDSAVYYCAREGRYSWFAYWGQGTLVTVSA
VL: B6 VL with A9G, S10A, Y30N, N85S, F87H, S94T, W96F, G100S

target: T1, human LILRB1 on CHOK1 cells (human, UniProt Q8NHL6 24-650); assay: FACS binding, CHOK1-hLILRB1 cells
T1 construct: whole, on cells; also called CHOK1-hLILRB1; CHOK1-LILRB1
T1 sequence (Q8NHL6 24-650): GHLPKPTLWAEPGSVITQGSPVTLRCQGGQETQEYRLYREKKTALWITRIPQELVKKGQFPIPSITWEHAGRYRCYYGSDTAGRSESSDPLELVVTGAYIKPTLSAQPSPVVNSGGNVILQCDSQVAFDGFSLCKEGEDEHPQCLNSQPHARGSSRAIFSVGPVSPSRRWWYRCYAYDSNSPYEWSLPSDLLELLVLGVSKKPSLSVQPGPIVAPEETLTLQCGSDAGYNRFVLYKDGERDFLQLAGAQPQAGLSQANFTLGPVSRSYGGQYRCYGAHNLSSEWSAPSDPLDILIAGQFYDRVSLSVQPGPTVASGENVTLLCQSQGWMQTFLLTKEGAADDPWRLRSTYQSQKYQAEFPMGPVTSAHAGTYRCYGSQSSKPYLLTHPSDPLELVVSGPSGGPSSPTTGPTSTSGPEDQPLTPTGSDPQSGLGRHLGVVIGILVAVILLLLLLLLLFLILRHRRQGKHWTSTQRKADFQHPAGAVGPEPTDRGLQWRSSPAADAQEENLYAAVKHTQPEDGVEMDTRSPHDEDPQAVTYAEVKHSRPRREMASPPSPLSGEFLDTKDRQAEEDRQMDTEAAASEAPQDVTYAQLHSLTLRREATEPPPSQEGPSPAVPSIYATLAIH

binding result | EC50 | Binder
no binding |  | B1
 | 2.01 nM | B2
 | 1.24 nM | B3
 | 5 nM | B4
 | 2.44 nM | B5
 | 1.33 nM | B6
 | 0.44 nM | B7
 | 2.45 nM | B8
 | 0.46 nM | B9
 | 0.97 nM | B10
 | 2.51 nM | B11
 | 2.79 nM | B12
 | 1.78 nM | B13
 | 1.14 nM | B14
 | 5.53 nM | B15
 | 0.28 nM | B16
 | 2.91 nM | B17
no binding |  | B18
 | 0.17 nM | B19

target: T1, human LILRB1 on CHOK1 cells; assay: cell-based RBA (FACS): blocking of HLA-G binding to CHOK1-hLILRB1 cells

EC50 | Top Inhibition (%) | Binder
2.08 nM | 87% | B14
0.44 nM | 81.9% | B16
0.32 nM | 78% | B19

target: T2, human LILRB2 on CHOK1 cells (human, UniProt Q8N423 22-597); assay: FACS binding, CHOK1-hLILRB2 cells
T2 construct: whole, on cells; also called CHOK1-hLILRB2; CHOK1-LILRB2
T2 sequence (Q8N423 22-597): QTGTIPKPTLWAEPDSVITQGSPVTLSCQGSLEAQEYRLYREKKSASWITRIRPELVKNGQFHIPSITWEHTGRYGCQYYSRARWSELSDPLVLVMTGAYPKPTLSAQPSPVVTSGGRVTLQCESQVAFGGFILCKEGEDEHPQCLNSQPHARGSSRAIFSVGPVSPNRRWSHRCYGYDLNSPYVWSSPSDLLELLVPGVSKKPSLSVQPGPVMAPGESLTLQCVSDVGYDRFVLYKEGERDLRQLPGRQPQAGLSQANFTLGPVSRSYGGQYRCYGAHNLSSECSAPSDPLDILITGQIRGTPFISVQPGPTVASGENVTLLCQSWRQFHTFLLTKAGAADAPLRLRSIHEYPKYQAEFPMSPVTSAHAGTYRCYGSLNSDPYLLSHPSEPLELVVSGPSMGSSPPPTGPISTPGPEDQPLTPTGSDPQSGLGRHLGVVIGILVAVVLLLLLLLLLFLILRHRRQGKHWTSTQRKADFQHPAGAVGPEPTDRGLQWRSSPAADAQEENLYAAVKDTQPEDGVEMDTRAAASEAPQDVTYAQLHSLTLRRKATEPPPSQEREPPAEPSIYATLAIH

binding result | EC50 | Binder
no binding |  | B1
no binding |  | B20
 | 605 nM | B2
no binding |  | B3
no binding |  | B4
no binding |  | B5
 | 5.72 nM | B6
no binding |  | B21
no binding |  | B7
no binding |  | B8
no binding |  | B9
no binding |  | B10
no binding |  | B11
no binding |  | B12
no binding |  | B13
no binding |  | B14
 | 47.4 nM | B15
no binding |  | B16
no binding |  | B17
no binding |  | B18
no binding |  | B19
